Data set [1] deals with T1, COQ3 (tetrapod ancestral) (Tetrapoda, UniProt Z9LPW8APZ1).
T1 construct: expressed in E. coli
T1 sequence (Z9LPW8APZ1 39-362): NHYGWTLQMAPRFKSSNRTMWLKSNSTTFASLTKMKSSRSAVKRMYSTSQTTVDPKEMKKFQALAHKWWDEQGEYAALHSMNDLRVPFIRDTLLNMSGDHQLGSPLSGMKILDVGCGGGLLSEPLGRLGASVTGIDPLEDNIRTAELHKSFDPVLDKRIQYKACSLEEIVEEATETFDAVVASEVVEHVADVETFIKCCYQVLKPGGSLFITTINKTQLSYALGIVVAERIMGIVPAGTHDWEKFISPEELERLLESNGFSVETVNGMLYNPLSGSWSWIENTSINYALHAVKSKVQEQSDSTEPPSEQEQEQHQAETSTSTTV
The experiment in a line: microscale thermophoresis. In kind it is binding. A general note: In MST a laser heats a spot of the sample, and binding alters the fluorescence response.

The subject of data set [2] is CC(C)=CCc1cc(C(=O)O)cc(O)c1O. The experiment in a line: purified protein. The following applies: 2 mM SAM, no added Mg2+, pH 7.2, 25 °C.
Data set [3] has as its system COc1cc(O)cc(CC=C(C)C)c1O. As to the kind of experiment: purified protein. The following applies: 1 mM SAM, 150 uM NADH, 25 °C.
Data set [4] concerns NC(=O)C1=CN([C@@H]2O[C@H](COP(=O)(O)OP(=O)(O)OC[C@H]3O[C@@H](n4cnc5c(N)ncnc54)[C@H](O)[C@@H]3O)[C@@H](O)[C@H]2O)C=CC1. The experiment in a line: purified protein. The following applies: 700 uM non-prenylated 5ox, without COQ9, 0.05% DDM, pH 7.2, 25 °C.
For data set [5], the system named is Nc1ncnc2c1ncn2[C@@H]1O[C@H](COP(=O)(O)OP(=O)(O)OP(=O)(O)O)[C@@H](O)[C@H]1O. The experiment in a line: ATPase activity (Malachite green phosphate). The data set is classed as biochemical, Tetrapoda. As to conditions: basal ATPase; no COQ partner or intermediate.

In the case of `CC(C)=CCc1cc(C(=O)O)cc(O)c1O` [compound 2, 3,4-dihydroxy-5-(3-methylbut-2-en-1-yl)benzoic acid], the Kd (as a rule, the equilibrium constant for the complex coming apart) in data set [1] is 6.5 µM. As for COQ3 (tetrapod ancestral) (Tetrapoda), in data set [2], the Km (in general, the concentration of substrate that gives half-maximal velocity) came to 887.9 µM and the kcat (commonly the maximal rate divided by the concentration of active sites) was found to be 0.0467 s⁻¹. Take COQ5 (tetrapod ancestral) (Tetrapoda): in data set [3], the Km was found to be 444 µM and the kcat worked out at 0.04 s⁻¹. In the case of COQ7 (tetrapod ancestral) (Tetrapoda), in data set [4], the Km was 141.7 µM and the kcat came to 0.02 s⁻¹. As for COQ8B (tetrapod ancestral) (Tetrapoda), in data set [5], the Km worked out at 26.6 µM and the kcat turned out to be 0.0067 s⁻¹.
